Experimental data as given in patent US20160115201, “PEPTIDES BINDING TO PARALLEL-STRANDED G-QUADRUPLEXES” (NANYANG TECHNOLOGICAL UNIVERSITY, published 2016).

Assays:
[1] = molecular target: T1, Rhau55 (N-terminal fragment of RHAU/DHX36) (UniProt Q9H2U1 SEQ:3-55); experiment: EMSA; 70 mM KCl, 20 mM phosphate pH 6.8; settings: tags: expressed in E. coli
T1 sequence: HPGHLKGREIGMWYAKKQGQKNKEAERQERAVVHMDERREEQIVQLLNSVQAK
Description: (§1) The ratio between Rhau55 and Nucleic acids is indicated on top of each lane. DNA concentrations were fixed at 100 μM, in 70 mM KCL and 20 mM phosphate buffer (pH=6.8).

[2] = molecular target: T1, Rhau55 (N-terminal fragment of …); experiment: EMSA; 70 mM KCl, 20 mM phosphate pH 6.8, room temperature; settings: tags: expressed in E. coli; parallel (propeller) G4
[3] = molecular target: T1, Rhau55 (N-terminal fragment of …); experiment: NMR imino protons, mixture with T95_2T; only T95_2T peaks affected; settings: tags: expressed in E. coli; non-parallel G4 form 1
[4] = molecular target: T1, Rhau55 (N-terminal fragment of …); experiment: EMSA; RNA G4; 70 mM KCl, 20 mM phosphate pH 6.8; settings: tags: expressed in E. coli; parallel RNA G4
Description: as §1

Binder: TGAGGGTGGTGAGGGTGGGGA (structured_DNA) [Pu24T]
- binding result ([1]; parallel G4): binds

Binder: TTGGGTGGGTGGGTGGGT (structured_DNA) [T95_2T]
- Kd [2]: 989 nM

Binder: TTGGGTTAGGGTTAGGGTTAGGGA (structured_DNA) [HT1]
- binding result [3]: no binding

Binder: AAGGGTGGGTGTAAGTGTGGGTGGGT (structured_DNA) [CEB25]
- binding result ([1]; parallel G4): binds

Binder: GGGUUGCGGAGGGUGGGC (ssRNA) [TERC18]
- binding result [4]: binds

Binder: UAGGGUUAGGGU (ssRNA) [12-nt TER]
- binding result [4]: binds

Binder: GGGGTGGGAGGAGGGT (structured_DNA) [93del]
- binding result ([1]; interlocked dimeric parallel G4): binds

Binder: AGGGGGGAGGGAGGGTGG (structured_DNA) [CEB1]
- binding result ([1]; parallel G4): binds

Binder: GGGUUAGGGU (ssRNA) [10-nt TER]
- binding result [4]: binds
